Measured values taken from IntAct's records for PubMed 21135237.

B1: Glutamate receptor 1 (Rattus norvegicus (Rat)), P19490 (parent)
chain: MPYIFAFFCTGFLGAVVGANFPNNIQIGGLFPNQQSQEHAAFRFALSQLTEPPKLLPQIDIVNISDSFEMTYRFCSQFSKGVYAIFGFYERRTVNMLTSFCGALHVCFITPSFPVDTSNQFVLQLRPELQEALISIIDHYKWQTFVYIYDADRGLSVLQRVLDTAAEKNWQVTAVNILTTTEEGYRMLFQDLEKKKERLVVVDCESERLNAILGQIVKLEKNGIGYHYILANLGFMDIDLNKFKESGANVTGFQLVNYTDTIPARIMQQWRTSDSRDHTRVDWKRPKYTSALTYDGVKVMAEAFQSLRRQRIDISRRGNAGDCLANPAVPWGQGIDIQRALQQVRFEGLTGNVQFNEKGRRTNYTLHVIEMKHDGIRKIGYWNEDDKFVPAATDAQAGGDNSSVQNRTYIVTTILEDPYVMLKKNANQFEGNDRYEGYCVELAAEIAKHVGYSYRLEIVSDGKYGARDPDTKAWNGMVGELVYGRADVAVAPLTITLVREEVIDFSKPFMSLGISIMIKKPQKSKPGVFSFLDPLAYEIWMCIVFAYIGVSVVLFLVSRFSPYEWHSEEFEEGRDQTTSDQSNEFGIFNSLWFSLGAFMQQGCDISPRSLSGRIVGGVWWFFTLIIISSYTANLAAFLTVERMVSPIESAEDLAKQTEIAYGTLEAGSTKEFFRRSKIAVFEKMWTYMKSAEPSVFVRTTEEGMIRVRKSKGKYAYLLESTMNEYIEQRKPCDTMKVGGNLDSKGYGIATPKGSALRNPVNLAVLKLNEQGLLDKLKNKWWYDKGECGSGGGDSKDKTSALSLSNVAGVFYILIGGLGLAMLVALIEFCYKSRSESKRMKGFCLIPQQSINEAIRTSTLPRNSGAGASGGGGSGENGRVVSQDFPKSMQSIPCMSHSSGMPLGATGL

Variants of: B1
Conditions: with kcc2a_rat Camk2a

Variant | effect of a mutation on the interaction
S567A | disrupting interaction
